# A protein production outcome set (Wang et al. 2014)
# Assay: label from the status in PepcDB records
# 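Also: failed if final PepcDB status was selected cloned or expressed and not failed if soluble or beyond.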
row,Sequence,protein production
1,MTSPSHASDRGGGDGDSVENQSPELRKDPVTNRWVIFSPARAKRPTDFKSKSPQNPNPKPSSCPFCIGREQECAPELFRVPDHDPNWKLRVIENLYPALSRNLETQSTQPETGTSRTIVGFGFHDVVIESPVHSIQLSDIDPVGIGDILIAYKKRINQIAQHDSINYIQVFKNQGASAGASMSHSHSQMMALPVVPPTVSSRLDGTKDYFEETGKCCLCEAKSKHFVIDESSHFVSVAPFAATYPFEIWIIPKDHSSHFHHLDDVKAVDLGGLLKLMLQKIAKQLNDPPYNYMIHTSPLKVTESQLPYTHWFLQIVPQLSGVGGFEIGTGCYINPVFPEDVAKVMREVSLT,not failed
2,MTSRIQMHRTSPPPAYGTSAPPSGFTLGASTTSTLQRWALPLLLVAFGLFYLLPLTSHGLWIPDETRYAQISQEMLLSGDWVAPHFMGIRYFEKPIAGYWLIAIGQAVFGDNLFGVRIASALSTGLSVLLAYLITRRMWNDPRKSFAAALLYMSFGLIAGQAGYSNLDPQFTLWVNLSLVALWFALDGRSTRERLLAWAGLGVACGMGFMTKGFLAWLLPVLIALPYMIWQRRLGELVRYGLVAVLVAIGISLPWVLSIHAHEPDFWRFFFWHEHIRRFAADNAQHTRPWWFYLPLLVASSLPWAALLPGTFMQAWKDKRQAPTGFLLLWFLLPLAFFSLSRGKLPTYIMPCLLPLAVLMGSALIDRINAIQGRSIRINSLLNLLIGVAAMVALLYIQLTRPVYGHNEMLGLSLVFIMLMGWIIANLLPAARPLQYWPAPALGIWLLVALLPAGMPGFIVHNQMPDQFIKEHIEELRQTKTLLSNDLGAASALAWRLQRPEVTLYNTEGELKYGLAYADSAQRKVSMAEVGQWVSEARKQGSVGVVMRVKDVVESEEVALLPPGGKRYEEGNMLVLILPQSQP,failed
3,MTSRLRALGGRINNIRTSELPKEKTRSEVTCSIRFLDGLVQTFKVNKQDLGQSLLDMAYGHLGVTEKEYFGLQHGDDPVDSPRWLEASKPLRKQLKGGLPCILHFRVRYFIPDPNTLQQEQTRHLYFLQLKMDVCEGRLTCPLNSAVVLASYAVQSHIGDFNSSIHHPGYLADSQFIPDQNDDFLSKVESLHEQHSGLKQSEAESCYINIARTLDFYGVELHGGRDLHNLDLMIGIASAGIAVYRKYICTSFYPWVNILKISFKRKKFFIHQRQKQAESREHIVAFNMLNYRSCKNLWKSCVEHHSFFQAKKLLPQEKNVLSQYWTLGSRNPKKSVNNQYCKKVIGGMVWNPVMRRSLSVERLETKSLPSRSPPITPNWRSPRLRHEIRKPRHSSADNLANEMTYITETEDVFYTYKGSLSPKDSDSEVSQNHSPHRGSLSENNPAQSCLTQKSSSSVSPCSNAPGSFSPDGVDQQFLEDYHKVTKGGSIEEASQYYCDKNDDGDGYLVLIRITPDKEGRFGFNLKGGVDQKMPLVVSRINPESPADTCMPKLNEGDQIVLINGRDISEHTHDQVVMFIKASRESHSRELALVIRRKAVRSLAEIRSEDELSQLFPEAMFPACPEGGDSLEGSMELLKKGLESGTVLIQFEQLYRKKPGLAVTFAKLPQNLDKNRYKDVLPYDTTRVLLQGNEDYINASYVNMEIPAANLVNKYIATQGPLPHTCAQFWQVVWDQKLSLVVMLTTLTERGRTKCHQYWPDPPDIMDHGIFHIQCQAEDCTIAYVSREMLVTNTETGEEHTVTHLQYVAWPDHGVPDDSSDFLEFVKYVRSLRVGGEPALVHCSAGIGRTGVLVTMETAMCLIERNLPVYPLDIVRKMRDQRAMMVQTSSQYKFVCEAILRVYEEGLVQTLDPS,failed
4,MTSRRLEESMGAVQMGLVNMFKGFQSKVLPPLSPKVVTEEEVNRMLTPSEFLKEMSLTTEQRLAKTRLMCRPQIIELLDMGETTHQKFSGIDLDQALFQPFPSEIIFQNYTPCEVYEVPLILRNNDKIPRLVKVVEESSPYFKVISPKDIGHKVAPGVPSIFRILFTPEENKDYAHTLTCVTEREKFIVPIKARGARAILDFPDKLNFSTCPVKYSTQKILLVRNIGNKNAVFHIKTCRPFSIEPAIGTLNVGESMQLEVEFEPQSVGDHSGRLIVCYDTGEKVFVSLYGAAIDMNIRLDKNSLTIEKTYISMANQRTITIHNRSNIIAHFLWKVFATQQEEDREKYRACDDLIKEEKDETDEFFEECITDPLLREHLSVLSRTFANQRRLVQGDSKLFFNNVFTVEPLEGDVWPNSSAEITVYFNPLEAKLYQQTIYCDILGREIRLPLRIKGEGMGPKIHFNFELLDIGKVFTGSAHCYEAILYNKGSIDALFNMTPPTSALGACFVFSPKEGIIEPSGVQAIQISFSSIILGNFEEEFLVNVNGSPEPVKLTIRGCVIGPTFHFNVPALHFGDVSFGFPHTLICSLNNTSLIPMTYKLRIPGDGLGHKSISYCEQHVDYKRPSWTKEEISSMKPKEFTISPDCGTIRPQGFAAIRVTLCSNTVQKYELALVVDVEGIGEEVLALLITARYCSPACSSPESPPSLQ,not failed
5,MTSSDLPVMLFAAGFGTRMGDLTRTRPKPLIEVAGRPLVDHTLDLARAVSPPRIVANLHYLAPLLAAHLAPQGVLLSHEQPDILDTGGGLRQALPLLAAETVFTANSDAIWSGPNPFALLAEAWEPARMDALLMCVPVGQAIGHAGHGDFSRDAQGRIERGPGLIYGGVQIVKTGGLGDFDMPAFSLNLLWNRIGAAGRLFALEYPGRWCDVGHPGGIALAEEMLRDVLEHHHHHH,not failed
6,MTSTTTAPLVGLVMGSDSDWPVMEAAADALAEFGIPFEADVVSAHRMPTEMIRYGQTAHERGLRVIIAGAGGAAHLPGMLASVTPLPVIGVPVPLKTLDGMDSLLSIVQMPAGVPVATVSIAGARNAGLLAVRILASGTDDLASKLRADLLTFAQELNDVATKKGENLRHKVEEVFSPANASARSSR,failed
7,MTSTTTSQQELFRFLEDRFACAQACTECARACALRASLVDPDGTENQELVRRRGIMCAEVCDATCRVLSEQNQVDEAAIRAQLEWCRQVCLESAHVFDDHPGAEESAQACRDCARACGEFLATLR,failed
8,MTSVESTAHIEKRFIELKNIWFIIASLCYVAAIGFIIAYFVGGYSPYISIAVMWGCIGSLDMILGILRRKKEK,failed
9,MTSVLEKRHAPKQRAEAQRALTGEDFVGDEAPGKDLPSRPRLDPAEFIKANMGLVPVLALPEIRFYTAHPGSGLRRLVDPEDDADADDDTPEPQPPYWAYAWAGGAVLARHILNHPKTVAGRRVLDLGAGSGIVGIAAAKAGASEVIAAEIDRNGVAAIGLNAAANGVEITIVHQDITMGSPPAVDLVLAGDVFYGREVALRVIPFLDRCLAAGIEVLVGDPRRHDLPLSRLRLLAEYQVPDFGDAKDAALKPSGVFRFEAETAPALAGAIKPSP,failed
10,MTSVRGIAPLPSKKSSDRQKRLAMSTFERYLTLWVALCIVVGIGLGHLMPGAFQVIGAAEIAKVNLPVAALIWLMIIPMLVRIDFAALGRVREHWRGIGVTLFINWAVKPFSMAALAWLFVGYLFRPYLPADQINSYIAGLIILAAAPCTAMVFVWSNLTKGEPHFTLSQVALNDTIMVFAFAPIVGLLLGLSAITVPWDTLVLSVVLYIVVPVIIAQGLRRWALASGGEAQLQRLLGIFQPLSLVALLATLVLLFGFQGEQIIRQPLVIALLAVPILIQVYFNAGLAYLLNRLSGEQHCVAGPSALIGASNFFELAVAAAISLFGFESGAALATVVGVLIEVPVMLTVVAIVNRSKRWYEADQRAPVARTPG,failed
11,MTSYTAAGLGELVQRDGALVNGRIYTDPEIFGLEMERIFSKVWVYVGHESQVANPGDYMTGYLAQQPIILTRDRAGQIHVLFNRCTHRGAKIVNRERGNERLLTCMYHGWAFGHDGELRGIPLKKDFPAEAVEPCKASLARPPRVDAYRGFIFASLNPDVEPLRDYLGAAASGIDEIVDRAPAGTIRLSAGCHRYIYEGNWKLQTDNLGDMYHPVACHSSTVDEDGKQFKRRPGDEGGRAAFLGADGEPIVIQTGVRGFLRGHSSEASLFGANDIVKEETRQRGGIIDEYRSLLIEQHGVEKTDEILKNRRHSMTLFPNLDVLMVQTSVRVVIPLAYNRTEVRIYPVHLDGAPDELNRQIIKFLNITHSAASFIQTDDLEAFKRQQEGLAARSPQWLIVARGQGSEIDEGNGAYFGPRASEVGQRMRHQYWRELMMAE,failed
12,MTTDQHQEILRTEGLSKFFPGVKALDNVDFSLRRGEIMALLGENGAGKSTLIKALTGVYHADRGTIWLEGQAISPKNTAHAQQLGIGTVYQEVNLLPNMSVADNLFIGREPKRFGLLRRKEMEKRATELMASYGFSLDVREPLNRFSVAMQQIVAICRAIDLSAKVLILDEPTASLDTQEVELLFDLMRQLRDRGVSLIFVTHFLDQVYQVSDRITVLRNGSFVGCRETCELPQIELVKMMLGRELDTHALQRAGRTLLSDKPVAAFKNYGKKGTIAPFDLEVRPGEIVGLAGLLGSGRTETAEVIFGIKPADSGTALIKGKPQNLRSPHQASVLGIGFCPEDRKTDGIIAAASVRENIILALQAQRGWLRPISRKEQQEIAERFIRQLGIRTPSTEQPIEFLSGGNQQKVLLSRWLLTRPQFLILDEPTRGIDVGAHAEIIRLIETLCADGLALLVISSELEELVGYADRVIIMRDRKQVAEIPLAELSVPAIMNAIAA,failed
13,MTTHITKAPAYWSRDAIWPGIVAVGPMLPGTLAFGMAFGALCAQKNFTLAEVEVMMATVYGGLSQFVAVQAWPDQLTPSTIAALALLTTTVNIRFFLMTASMRPWFGTLPAWQAYPPLLLVTDGGWLAAMRYREHGGANAWFYLGGALVLYLVWLVSAIPGFLLAEQLADPKKFGVDIAMPAFFAALLVPAWKGPRRAIPWLVSGIVALTVHWLIPGYWFIIAGALSGAITAGLMDEPPVATSHAGHSS,failed
14,MTTLLRNETPRRCAFWRGARGILAFVLALALTIQGVAPAWAFLGLGGFTIKDEVELGRKFDVLIKSRMPLVEDPEVKVYVQDIVARLLEQAPPQPFDFKTNVLLHNSLNAFASPGGFIFVHTGLVMQMDHEAEVAGVLAHELAHATQRHIAGRIEKMQTTSILSMAGALAGAFLGGGSGKGAAMAGSIAAGQSAMLNYSRVDETEADEIGLRYLIAAGFRPEGMVGAFEKIRKKQWAMGTDIPSYLSTHPAVNERINSLSARIAALPADIRSRPNDDARFLRVRTICRARYGDPAVSERLFADAPAGDCLAQLGKAILFSRQNRVAEATAAFDKALQCSPKDQLIWREAGRFHYTKGDKGRAAAMLQRATLMNPDDYMALFFYARLLADSGQPQKSYQYFDEVLRRLPEDAEVHYYYGRVLGASGQPFKAYLHLAYSSLYSNDKHKTESFEEQARAQARTPEEMAELERFAATYQERKAFW,failed
15,MTTLRTLMAVSLVLNLAACGFKLRGQVSELPFERVYITAPAGLTIGSDLERVISTHTRAKVVNKAEKSEAIIQIVHAIREKRILSLSESGRVREFELVYRVAARLLDAHNAELASLQEIRLTRILPFLDAQELAKAAEEEMLYKDMQKDAVQQILRQVSAVTSAGLEHHHHHH,not failed
16,MTTTQPEAKDRISSLPVPDATQVPEGVRKLWAKAEANIGFVPNVFRAQAVNGEQFLAWWNYFNLLLNKEGYLTNAERELVAVVVSGVNRCLYCAVSHGAALREFLGDPQKADAVAVNWRHADLTEREQALAAYAEKLTRHPAEVTAADLEPLRAVGLDDHQIMELVQVIGMFNLTNRVSSALGFVPNPEYYRQAR,not failed
17,MTTTTNKAWRTICKATELVKDSGISALIANSAGEDEQIAIFHIPNSEEKIYAVGNYDPIGQANVLYRGLVGCIDDEPVVSSPLYKQHYSLKTGRCLQEDQTIAVYDIRIENEQVQLFYLEHHHHHH,failed
18,MTTVIVGAGRIGSSVIELAADANIGVTVIEQEHERAHEFKADENCHVIHDDATERETLHEAEVGNADAIIATTDQDTTNLMVLMLARELGCETLVSVVHAEENIPLFRQLGATIIENPQRLIAEYLFRGTHDPGIQGFMHVGDRDGGAEVFEISVADGAPIIGKTLEQADVAGFLPPSMVVVAVERDGEIIIPRGNTQIETDDLVTVFSKEGIINEVVEPFKPEAKRTGDSDTE,failed
